The target in the experiment is T1, αVβ3 integrin purified from HUVE cell lysates (human, UniProt P06756 31-1048; P05106 27-788).
T1 construct: mature; Detergent-solubilised native heterodimer, coated on plates; also called vitronectin receptor; immobilized integrin
As to the kind of experiment: affinity chromatography of HUVE cell lysate on RGDSPK Sepharose. As to the method:
αVβ₃ integrin purification from HUVE cell lysates was done as described in Pytela et al., Meth. Enzynmol., 144:475-489 (1987). Briefly, 10⁸ cells were lysed in 1 ml of PBS containing 1 mM CaCl₂, 1 mM MgCl₂, 0.5 mM PMSF and 100 mM octylglucoside. […] The purity of the integrin was determined by SDS-PAGE under non-reducing conditions, followed by silver staining.

Where no end group is shown, it is not given here.

T1 sequence (P06756 31-1048, chain 1 of 2): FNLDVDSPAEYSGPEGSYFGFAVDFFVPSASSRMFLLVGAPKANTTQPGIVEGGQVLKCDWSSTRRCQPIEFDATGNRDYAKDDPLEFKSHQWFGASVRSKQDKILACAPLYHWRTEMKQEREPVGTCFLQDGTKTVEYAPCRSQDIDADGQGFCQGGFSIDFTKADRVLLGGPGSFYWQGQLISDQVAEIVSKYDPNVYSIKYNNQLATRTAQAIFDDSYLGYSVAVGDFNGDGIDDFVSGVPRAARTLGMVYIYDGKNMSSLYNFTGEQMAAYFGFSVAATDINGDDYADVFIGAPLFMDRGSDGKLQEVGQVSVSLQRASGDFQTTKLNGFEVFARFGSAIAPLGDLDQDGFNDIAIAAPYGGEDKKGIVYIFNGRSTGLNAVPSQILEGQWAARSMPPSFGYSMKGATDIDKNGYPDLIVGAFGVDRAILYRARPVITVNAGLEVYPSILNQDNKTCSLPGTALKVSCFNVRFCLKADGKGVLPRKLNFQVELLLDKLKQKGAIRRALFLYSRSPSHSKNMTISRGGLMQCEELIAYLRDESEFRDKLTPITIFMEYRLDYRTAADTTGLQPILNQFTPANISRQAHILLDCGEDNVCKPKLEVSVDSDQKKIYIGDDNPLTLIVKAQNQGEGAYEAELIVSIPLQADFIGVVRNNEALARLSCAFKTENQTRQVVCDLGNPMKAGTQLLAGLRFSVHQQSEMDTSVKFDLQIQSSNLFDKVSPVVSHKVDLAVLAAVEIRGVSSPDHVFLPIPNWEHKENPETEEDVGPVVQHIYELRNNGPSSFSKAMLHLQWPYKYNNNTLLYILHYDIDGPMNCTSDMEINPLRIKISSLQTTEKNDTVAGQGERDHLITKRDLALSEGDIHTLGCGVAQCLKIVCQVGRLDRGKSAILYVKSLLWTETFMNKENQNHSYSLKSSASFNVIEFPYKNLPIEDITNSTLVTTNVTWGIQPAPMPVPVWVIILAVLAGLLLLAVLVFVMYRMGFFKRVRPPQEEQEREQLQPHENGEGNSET
T1 sequence (P05106 27-788, chain 2 of 2): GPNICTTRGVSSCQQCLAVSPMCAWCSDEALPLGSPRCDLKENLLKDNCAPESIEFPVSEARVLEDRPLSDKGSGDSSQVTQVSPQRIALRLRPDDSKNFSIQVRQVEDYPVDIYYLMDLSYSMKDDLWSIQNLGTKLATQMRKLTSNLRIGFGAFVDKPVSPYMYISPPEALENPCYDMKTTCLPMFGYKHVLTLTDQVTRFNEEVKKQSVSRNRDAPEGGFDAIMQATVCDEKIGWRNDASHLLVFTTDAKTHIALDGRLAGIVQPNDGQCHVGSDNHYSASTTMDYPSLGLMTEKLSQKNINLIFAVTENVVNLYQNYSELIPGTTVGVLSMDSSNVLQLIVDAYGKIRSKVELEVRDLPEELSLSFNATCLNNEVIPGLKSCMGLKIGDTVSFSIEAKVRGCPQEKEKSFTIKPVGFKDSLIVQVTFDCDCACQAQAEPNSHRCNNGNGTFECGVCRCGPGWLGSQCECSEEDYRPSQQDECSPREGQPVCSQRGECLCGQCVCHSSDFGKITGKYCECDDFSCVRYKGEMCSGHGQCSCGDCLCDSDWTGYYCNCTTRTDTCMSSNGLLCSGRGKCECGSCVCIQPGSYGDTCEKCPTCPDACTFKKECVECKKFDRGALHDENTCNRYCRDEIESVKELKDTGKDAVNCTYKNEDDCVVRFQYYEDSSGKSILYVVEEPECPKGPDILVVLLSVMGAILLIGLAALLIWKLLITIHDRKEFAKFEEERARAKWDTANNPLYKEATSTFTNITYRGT

For RGDSPK (also: coupled to cyanogen bromide activated Sepharose CL 4B, also called RGDSPK peptide) [RGDSPK Sepharose], the binding result was “binds”.

Values taken from patent US20040002124A1 (MUNIN, published 2004).
